In PMC4902571:

Columns and labels:
[1] = biological target: Src13-GCN4-EGFRk: c-Src membrane localization sequence, coiled-coil segment of GCN4 joined to the N-terminus of the kinase domain of EGFR, EGFP or mCherry (UniProt P00533); experiment: PIE-FCCS (pulsed-interleaved excitation fluorescence cross-correlation spectroscopy); control constructs with the c-Src membrane localization sequence, EGFP and mCherry fusions coexpressed; data collected previously on the same instrument and reproduced here; median fraction correlated fc
[2] = biological target: EGFR-EGFP with deletion of the dimerization arm, residues 242 to 259 (human) (UniProt P00533); experiment: single-molecule stepwise photobleaching (TIRF microscopy); EGFP fusions on the membrane of live Xenopus oocytes, without EGF; ~1 to ~5 molecules per um^2; room temperature; 20 Hz; 3% two-step baseline (Claudin-16) subtracted
[3] = biological target: Src13-GCN4: c-Src membrane localization sequence, coiled-coil segment of GCN4, EGFP or mCherry; experiment: PIE-FCCS (pulsed-interleaved excitation fluorescence cross-correlation spectroscopy); control constructs with the c-Src membrane localization sequence, EGFP and mCherry fusions coexpressed; data collected previously on the same instrument and reproduced here; median fraction correlated fc

Substance: Src13-GCN4-EGFRk: c-Src membrane localization sequence, coiled-coil segment of GCN4 joined to the N-terminus of the kinase domain of EGFR, EGFP or mCherry (from UniProt P00533 712-979)
- fraction correlated fc (median) [1]: 0.23

Substance: EGFR-EGFP with deletion of the dimerization arm, residues 242 to 259 (from UniProt P00533 25-1210) (receptor)
- fraction of two-step photobleaching events (baseline subtracted) [2]: 9%

Substance: Src13-GCN4: c-Src membrane localization sequence, coiled-coil segment of GCN4, EGFP or mCherry
- fraction correlated fc (median) [3]: 0.13
